Measured values published in the supplement of paper PMC9170038.

Tested on: K4 kissing-loop RNA reporter
Assay: apparent KD of K4 kissing-loop reporter; higher = weaker reporter binding
Conditions: Eterna round: R107
Protocol: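 RNA-MaP round R107: designed RNA switches with theophylline, tryptophan, arginine or FMN aptamers are transcribed on-chip within common flanks. They are titrated with a labelled K4 kissing-loop RNA reporter in RNA-MaP buffer (100 mM Tris pH 7.5, 80 mM KCl, 4 mM MgCl2), without ligand or with the indicated ligand. Median apparent KD per design.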

[1] = input ligand: theophylline 20 uM
[2] = input ligand: tryptophan 2.4 mM
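Further: bound reporter read as fluorescence of individual clusters on recovered sequencing chips by microscopy, with normalized cluster intensities fitted with a binding model.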

Row | Sequence | apparent KD of K4 kissing-loop reporter (input ligand: FMN 200 uM) [nM] | apparent KD of K4 kissing-loop reporter (input ligand: arginine 13.2 mM) [nM] | apparent KD of K4 kissing-loop reporter (input ligand: none) [nM] | apparent KD of K4 kissing-loop reporter [1] [nM] | apparent KD of K4 kissing-loop reporter [2] [nM]
1 | AAUAAUAAUAAAUAAAGAUUGAUGAGCAAACGAGGACCGGUACGGCCGCCACUCGAGUGAUGUUCGAGAAGCUCAUCAAUCAUAA [AK4.8 Exc Tryptophan A] | 147 | 134 | 138 | 112 | 337
2 | AUUAUAAAGACGGCCGCCACUGAGAGUAGUGAUGUUACUCUUUUCCUUUAGAUAUUAUAUUUUAUCAGGACCGGGUUUUUUGAUU [JR_Nu_ExcTryptoB_Sub025] | 97.3 | 86.7 | 90.3 | 88.1 | 91.9
3 | ACGUGCCCAGUGAUGUUGGAUAAAUAUGAAGGAGCGUGCGAAAGCACAGGUAGGUCGCAUAAUAGCACGAGCCACGAAAGUGGCA [#SwitchBubble 7 #K4Early #Sliding] | 179 | 200 | 181 | 245 | 134
4 | GGCAUGCGUAGAGUGAUGUUCUAAGAUGAUACCAGUGCGGAAACGCACCCUUGGCAGCAUCUGACGAGCAUGCCGGCGAAAGCCU | 792 | 586 | 814 | 607 | 771
5 | GUGCGGCUAGUGAUGUUGGUUGCGUGGGAAGGAGCGCAGAAACAUGCAGGUAGGUCGCCCACACCUCUGAAAGGAGGUUAAUUCA [Diusdige] | 200 | 172 | 133 | 171 | 248
6 | CAUCACGCAAUCACGGAUGCAAGCAUUGAUACCAGAACCGAUUAUUUCCCUUGGCAGCAACACGGAGUGAUGUUCCUAGCAUAUA [theeternabot_sameState_KL_Theo_A_21] | 71.2 | 122 | 94 | 209 | 75.5
7 | AAAAUAAAAGCAGUCAUCGGAGUGAUGUUCCGAGGACCGGUACGGCCGCCACUCGACCAGACAAAGUCUGGAUGGCGAGACUGCA [#SwitchBubble 18 #K4Early] | 83.6 | 85.1 | 102 | 91.4 | 85.6
8 | UACUAUAGUGAUGUUAUAGAUAAACCAGAUACCAGUGUAACAUAACACCCUUGGCAGCUGAUAAGGGAAAGUAUAAAUGUGUAUU [AstrosSSTHe-A#3newdesignED] | 230 | 198 | 228 | 219 | 205
9 | CGAGUGAUGUUCGUUUUUUAAUUUUUUUGACAGGAUAUGCGGAAACGCAGAAGGGUCACCUUUGAGUUAAAAGAAUUUAUUUUUU [Ex FMN A 17] | 321 | 236 | 295 | 298 | 199
10 | GUGAGGAUCCGAAGGAGCGUCCGCAAUCCAGUGAUGUUGGGUGUUGGUUAUAUUUAACGAGGACAGGUAGGUCGCGGAUUUUCAA [Same State Arginie B GF 22] | 202 | 126 | 172 | 193 | 159
11 | AAAACUAUCAGAAGGAGCGUGGAAUAUACAUCUAUAUUUAAUACGAGUGAUGUUCGUAAUUCACAGGUAGGUCGCUGAUCAAUAA [whbob_Ex_Arginine_B_2th153] | 228 | 320 | 278 | 359 | 206
12 | CGCAGUGAUGUUGCGAGUUCAUUCAGGGAAGGAGCGCCACAGAUGGCAGGUAGGUCGCCCACGCAGUGAUGUUGUGUAUUCGGGU [Exclusion Arginine A GF 2] | 202 | 153 | 165 | 170 | 137
13 | AAUUCAGUGAUGUUGGAAGGCAGGAGGGAUACCAGCGGAAAUAAACGCCCUUGGCAGCCCAAAUAUCCCAAAUAGAUAAUAAUUU [Same State - Theophylline A (Freestyle 1)] | 581 | 381 | 610 | 607 | 563
14 | AGUGAUGUAUGGCGGUGUGUCGCUUAAAAUCAGGAUAUAUAAACAAAUAGAAGGGAUGGCGGAGUGAUGUUCCGCCGGCCGCCAU [FMN A Exl V2] | 127 | 118 | 134 | 136 | 128
15 | UAAGAGGACCACUGCAAAAGUCCUCGAAUACGAGGACCGGUACGGCCGCCACUCGAUAAUUUGCAGUGAUGUUGCAAGUAAGAAU [BrourdMod 4 - Jieux - Same State Tryptophan A] | 120 | 158 | 130 | 201 | 71.2
16 | GACAGUCGGUGUUAAUGACAGUUACGCGAUACCAGCGAAACAGUACGCCCUUGGCAGCGCAGUGAUGUUGCGCGCCUAGUGUGGU [Esbiceve] | 99.5 | 94.8 | 101 | 92.5 | 97.2
17 | CGAAGAUUCCAUGAUACCAGCCUCGGCCCAUAGAGUGAUGUUCUAGUCGGGUCCGUUCGCGGCCCUUGGCAGCAUUUCACCACGA [theeternabot_sameState_KL_Theo_B_44] | 197 | 172 | 178 | 216 | 159
18 | GCCGUAGAUUGAAGGAGCGGCUUCAUCAAAUCUCUUGCCCGCACCAGUGAUGUUGGUGUUAGCCAGGUAGGUCGCAAUCUACGGC | 577 | 376 | 583 | 493 | 465
19 | GACGUUGAAGCGGCCGCCACUAGGAAGGGUACGGAGAGUACAUCUCACGGAGAGUGAUGUUCUCAUAGGACCGGGCUCAUAUCAA [theeternabot_sameState_KL_Trp_B_21] | 308 | 215 | 605 | 238 | 362
20 | GCUAUGGUAGGAAGGAGCGCUUAUUUAUUAAUAAGAGUGAUGUUCGAUAGUAGAUAUUUAUAGCAGGUAGGUCGCCUACUAUAGC [Arginine B K4 12] | 186 | 196 | 167 | 341 | 167
21 | AUGCGUGAUGCUCAAAGAGUAUCACCCGAUACCAGUAUGGAAACAUACCCUUGGCAGCGGGUAACUGCCCAGUGAUGUUGGACGC [Theophylline A K4 10] | 286 | 160 | 242 | 288 | 234

Row | Sequence | apparent KD of K4 kissing-loop reporter (input ligand: FMN 200 uM) [nM] | apparent KD of K4 kissing-loop reporter (input ligand: arginine 13.2 mM) [nM] | apparent KD of K4 kissing-loop reporter (input ligand: none) [nM] | apparent KD of K4 kissing-loop reporter [1] [nM] | apparent KD of K4 kissing-loop reporter [2] [nM]
22 | UCCUGCACGGUCGAUACCAGCCUAUGCAGUGAUGUUGUAAGGUUGUCACUUUAGUACGAAGGCCCUUGGCAGCGAUGAUGUAACA [theeternabot_exclusion_KL_Theo_B_41] | 601 | 470 | 604 | 504 | 464
23 | AUUAAUAACAGAGGAUAUGCAUUAUUAUUAUUUUUAAAUAAUAAAUGCAGUGAUGUUGCAUAUUAAGCAGAAGGCUGAUUUAUUU [JR_SSFMNB_Sub011] | 137 | 516 | 484 | 439 | 353
24 | UUGGCUGGACGGGAUACCAGCCAAAUCGUGUGCUUGGGAUGUCUAAGAGCCAGUGAUGUUGGCCCUUGGCAGCCCUCCCAGCUUG [Inontixe] | 124 | 88.6 | 97.1 | 134 | 98.4
25 | UUUUAUUAGUAGUGAUGUUACUAAACUGAAGGAGCGAGAUUUAACUCAGGUAGGUCGCAGAAAAUCAAUUAAUUUAUAAAUUAAA [JR_SSArginiA_Sub011] | 97.7 | 87.8 | 99.8 | 87.2 | 94.6
26 | UCUGUUGUAUAUGAUACCAGCAGUGAGAGAUGAGAAGUAUAGUGAUGUUAUAUGAGUGAAUGCCCUUGGCAGCGUGUGCGUGUGG [SSTheophylB.aD] | 101 | 112 | 94 | 134 | 87.5
27 | AAGCAGUCGCUCGAAGCCAUCGAAGAUGGGCGAGGACCGGUACGGCCGCCACUCGGAGUGAUGUUCCGAGGACUGCAAAAUAAAA [MatMod 5 - Jieux - Exclusion - Tryptophan A] | 418 | 246 | 321 | 263 | 409
28 | AAAAUUAAGGCCGAAUAAACUUAUUUCAUACGAGGACCGGUACGGCCGCCACUCGAGUCAAGUGAUGUUUGACUAUCUAUUAUUA [JR_ExcTryptoA_Sub009] | 61.4 | 87.1 | 68.7 | 83 | 54
29 | GGAGGGAUCUCGGCCGCCACUCAUAAGAAAUGGGCCUCAGAGAUAUAGUGAUGUUAUGUAAAGAAGAGGACCGGGAGAAAGAAGG [ExTryptoB.Db] | 148 | 141 | 141 | 135 | 144
30 | AGGAGCGUGCGAUGAAAAUCGCACGCUCCUCGAGGACCGGUACGGCCGCCACUCGCUCGCGCCGAGUGAUGUUCGGCCGGCGAAC [#2 Same State - Tryptophan A Attempt #8 (HarryS)] | 194 | 180 | 234 | 269 | 966
31 | UUACUGCCCAGUGAUGUUGGGUAUCGGCGGCGAGGACCGGUACGGCCGCCACUCGGCGCACAGGCGGAGUGAUGUUUCGCUUAAA [Same State Tryptophan A GF 12] | 621 | 539 | 627 | 631 | 186
32 | CGCGCCCAGCCGGAUACCAGUGACCCGCUGGGAACCGCGGGCCCAGAGUGAUGUUCGGGACACCCUUGGCAGCCGCCUGGGCGGG [#2 Same State - Theophylline B Attempt #16 (HarryS)] | 1350 | 606 | 597 | 460 | 608
33 | AAUUAAUACAGAAGGAGCGUGUUUUUUAAUUUAUUUUCAUGAUCGAGUGAUGUUCGAUAUACACAGGUAGGUCGCUGUAUAUUUA [JR_SSArginiB_Sub008] | 98.8 | 142 | 113 | 139 | 92.1
34 | UUUGGAUUGCGCUAAGAGUGCAAGCGCCAACGAGGACCGGUACGGCCGCCACUCGCGGAGGAGUCCAGUGAUGUUGGACGGCCCG [Orbile] | 326 | 222 | 601 | 178 | 183
35 | UGAUACCAGACGGCCGCCACUCUUGCAGUCAAAGACUGCUAAAAGGAAAUCGUCCAGUGAUGUUGGAGGACCGGGUCUGGUAUCU [TrypBX 15 #SwitchBubble #Palindromic #StaticStem] | 1420 | 774 | 1370 | 774 | 736
36 | AGUUCAGAGUGACUCGAUAAGAGUCACAAACGAGGACCGGUACGGCCGCCACUCGAAAUAACGAGAGUGAUGUUCUCGCUGGGCA [FiskerMod 2 - Jieux - Same State Tryptophan A] | 726 | 674 | 862 | 824 | 244
37 | AGCCGAAAGGCGAGUGCUGUCACUCCGGAAGGAGCGCUCGAAAGAGCAGGUAGGUCGCCGGAGUGAUGUUCCGGUGCAGCACUCA [Omei KL Arginine A Exc B v5] | 654 | 390 | 1250 | 1210 | 1100
38 | ACGUAGUUCUAGGAUACCAGCCAAGGAGGGUAGGACAAAAGUCCUGUAGCCAGUGAUGUUGGCCCUUGGCAGCCUAGAACUACGA [Omei KL Theo B Exc B v3] | 162 | 183 | 138 | 139 | 151
39 | UACUAUAGUGAUGUUAUAGAUAAACCAGAUACCAGUGUAACAUAACACCCUUGGCAGCUGAUGAGGGAAGUUAUCAAAAGAUAAC [AstroSTH-A#10designED4.80] | 227 | 190 | 142 | 115 | 198
40 | GCCGUACGCAUGGAUACCAGCAUCGACUCAUAUACAGUGAUGUUGUGUAAUGACCUCAUUUGCCCUUGGCAGCCAUGCGUACGGC | 471 | 291 | 620 | 857 | 800
41 | GGAUCCACCAGUGAUGUUGGAGAAAACUCUAAGGAUAUGACGAAAGUCAGAAGGUGGUAGACUGGUCAAAGUCCGGUCGGAUCCA [FmnA10 U30+U66] | 237 | 191 | 577 | 756 | 249
42 | CAUACGCAUGGAGGAUAUGAGAUUACUCAUAUCAUUUAAUAUUCUCAGUGAUGUUGAGAUUUAGACUCAGAAGGCCAUGUGUAUG [Ex FMN B 13] | 302 | 310 | 350 | 357 | 317
